Measured values published in paper PMC3905752 (Nature chemical biology, 2013).

Target: T1, Cdc34A^FL, full length Cdc34A (residues 1-236) (human, UniProt P49427 1-236)
T1 sequence: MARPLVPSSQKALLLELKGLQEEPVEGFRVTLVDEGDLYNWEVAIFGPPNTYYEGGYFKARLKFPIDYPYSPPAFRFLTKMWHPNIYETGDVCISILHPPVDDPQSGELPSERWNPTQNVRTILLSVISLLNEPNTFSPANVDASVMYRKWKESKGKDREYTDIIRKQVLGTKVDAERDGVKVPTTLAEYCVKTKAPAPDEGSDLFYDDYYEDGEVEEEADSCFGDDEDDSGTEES
Assay: NMR titration

binding result: binds
B1: Rbx1^12-108-SSQS, Rbx1 fragment that contains the RING domain (residues 12-108) (domain or fragment)
chain: not shown
